Laboratory results taken from article PMC3654228 (Nature communications, 2012).

T1: 6His-RBD-psiRRM-LRR (Homo sapiens, UniProt Q9UBU9 1-372)
T1 sequence: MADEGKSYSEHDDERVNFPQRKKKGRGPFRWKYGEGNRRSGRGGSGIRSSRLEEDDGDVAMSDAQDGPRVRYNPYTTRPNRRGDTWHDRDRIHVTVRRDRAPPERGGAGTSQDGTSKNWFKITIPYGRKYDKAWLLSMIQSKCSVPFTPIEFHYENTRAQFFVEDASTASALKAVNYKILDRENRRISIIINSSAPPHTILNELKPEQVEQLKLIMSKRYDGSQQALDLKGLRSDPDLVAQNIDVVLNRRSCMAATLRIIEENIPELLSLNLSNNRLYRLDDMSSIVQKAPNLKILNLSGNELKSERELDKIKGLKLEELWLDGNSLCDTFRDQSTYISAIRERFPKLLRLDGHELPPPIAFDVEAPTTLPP

T2: GST-RBD-psiRRM-LRR (Homo sapiens, UniProt Q9UBU9 1-372)
T2 sequence: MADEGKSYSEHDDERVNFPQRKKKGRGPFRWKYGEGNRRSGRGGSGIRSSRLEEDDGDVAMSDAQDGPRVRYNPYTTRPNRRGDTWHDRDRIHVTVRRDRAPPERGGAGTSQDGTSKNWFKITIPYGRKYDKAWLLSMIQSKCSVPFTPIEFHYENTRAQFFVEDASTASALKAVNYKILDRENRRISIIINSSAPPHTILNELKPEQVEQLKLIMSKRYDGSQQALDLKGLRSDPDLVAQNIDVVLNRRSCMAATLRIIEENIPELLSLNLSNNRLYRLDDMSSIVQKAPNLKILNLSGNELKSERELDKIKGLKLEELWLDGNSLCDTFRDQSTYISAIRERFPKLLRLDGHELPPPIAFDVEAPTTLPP

T3: Nxf1 (of the Nxf1:p15 used for gel filtration) (human, UniProt Q9UBU9 1-619)
T3 sequence (looked up): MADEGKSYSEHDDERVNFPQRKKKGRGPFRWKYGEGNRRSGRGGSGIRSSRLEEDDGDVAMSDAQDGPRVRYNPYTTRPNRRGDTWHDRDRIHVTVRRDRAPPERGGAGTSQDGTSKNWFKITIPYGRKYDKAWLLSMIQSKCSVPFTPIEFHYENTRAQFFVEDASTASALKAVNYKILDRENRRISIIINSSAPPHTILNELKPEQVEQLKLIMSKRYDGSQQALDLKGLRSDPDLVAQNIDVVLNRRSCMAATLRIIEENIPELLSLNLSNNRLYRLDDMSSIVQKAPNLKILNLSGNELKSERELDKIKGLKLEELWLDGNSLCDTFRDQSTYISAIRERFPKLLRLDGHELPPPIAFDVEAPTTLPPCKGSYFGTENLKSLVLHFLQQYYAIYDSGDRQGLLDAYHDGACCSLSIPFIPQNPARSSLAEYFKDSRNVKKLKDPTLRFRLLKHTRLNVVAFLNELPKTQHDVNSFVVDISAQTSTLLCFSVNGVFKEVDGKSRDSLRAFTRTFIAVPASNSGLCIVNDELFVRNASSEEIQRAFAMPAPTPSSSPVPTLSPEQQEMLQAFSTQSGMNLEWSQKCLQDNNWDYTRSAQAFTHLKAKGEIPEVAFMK


Experiments:
Aly = Aly (UniProt Q9JJW6 1-218); assay: UV crosslinking
6His-RBD-psiRRM-LRR = target: T1, 6His-RBD-psiRRM-LRR; assay: UV crosslinking
GST-Nxf1:p15;Aly = GST-Nxf1:p15;Aly (Homo sapiens;, UniProt Q9UBU9;Q9UKK6;Q9JJW6 1-619;1-140;1-218, |); assay: GST pulldown then UV crosslinking
GST-Nxf1:p15;Aly;Thoc5 = GST-Nxf1:p15;Aly;Thoc5 (Homo sapiens;;Homo sapiens?, UniProt Q9UBU9;Q9UKK6;Q9JJW6;Q13769 1-619;1-140;1-218;1-683, ||); assay: GST pulldown then UV crosslinking
GST-RBD-psiRRM-LRR = target: T2, GST-RBD-psiRRM-LRR; assay: UV crosslinking
[1] = target: T3, Nxf1 (of the Nxf1:p15 used for gel …); assay: SEC

Binder | binding result (Aly) | binding result (6His-RBD-psiRRM-LRR) | binding result (GST-Nxf1:p15;Aly) | binding result (GST-Nxf1:p15;Aly;Thoc5) | binding result (GST-RBD-psiRRM-LRR) | stoichiometry N [1]
CAGUCGCAUAGUGCA (ssRNA) [15-mer RNA] | binds | binds | binds | binds | binds | 
p15 (natural protein) MASVDFKTYVDQACRAAEEFVNVYYTTMDKRRRLLSRLYMGTATLVWNGNAVSGQESLSEFFEMLPSSEFQISVVDCQPVHDEATPSQTTVLVVICGSVKFEGNKQRDFNQNFILTAQASPSNTVWKIASDCFRFQDWAS |  |  |  |  |  | 1
